According to patent US20060093613A1 (published 2006):

Target: T1, influenza virus nucleoprotein peptide on H-2Db (mouse)
T1 peptide: ASNENMDAM
Test: Kd or kinetics

B1: F5 TCR (TCR, V domains shown)
Valpha: GDSVTQMQGQVTLSEDDFLFINCTYSTTWYPTLFWYVQYPGEGPQLLLKVTTANNKGISRGFEATYDKGTTSFHLQKASVQESDSAVYYCVLGDRQGGRALIFGTGTTVSVSP
Vbeta: KAGVTQTPRYLIKTRGQQVTLSCSPISGHRSVSWYQQTPGQGLQFLFEYFSETQRNKGNFPGRFSGRQFSNSRSEMNVSTLELGDSALYLCASSFDSGNSPLHFGNGTRLTVT
B1: recognises.
